T1: mouse collagen (type III) in descending aorta sections (mouse, UniProt P08121 155-1219, limits assumed)
T1 construct: The target is tissue; also called mouse type III collagen; mouse aorta sections
T1 sequence (looked up): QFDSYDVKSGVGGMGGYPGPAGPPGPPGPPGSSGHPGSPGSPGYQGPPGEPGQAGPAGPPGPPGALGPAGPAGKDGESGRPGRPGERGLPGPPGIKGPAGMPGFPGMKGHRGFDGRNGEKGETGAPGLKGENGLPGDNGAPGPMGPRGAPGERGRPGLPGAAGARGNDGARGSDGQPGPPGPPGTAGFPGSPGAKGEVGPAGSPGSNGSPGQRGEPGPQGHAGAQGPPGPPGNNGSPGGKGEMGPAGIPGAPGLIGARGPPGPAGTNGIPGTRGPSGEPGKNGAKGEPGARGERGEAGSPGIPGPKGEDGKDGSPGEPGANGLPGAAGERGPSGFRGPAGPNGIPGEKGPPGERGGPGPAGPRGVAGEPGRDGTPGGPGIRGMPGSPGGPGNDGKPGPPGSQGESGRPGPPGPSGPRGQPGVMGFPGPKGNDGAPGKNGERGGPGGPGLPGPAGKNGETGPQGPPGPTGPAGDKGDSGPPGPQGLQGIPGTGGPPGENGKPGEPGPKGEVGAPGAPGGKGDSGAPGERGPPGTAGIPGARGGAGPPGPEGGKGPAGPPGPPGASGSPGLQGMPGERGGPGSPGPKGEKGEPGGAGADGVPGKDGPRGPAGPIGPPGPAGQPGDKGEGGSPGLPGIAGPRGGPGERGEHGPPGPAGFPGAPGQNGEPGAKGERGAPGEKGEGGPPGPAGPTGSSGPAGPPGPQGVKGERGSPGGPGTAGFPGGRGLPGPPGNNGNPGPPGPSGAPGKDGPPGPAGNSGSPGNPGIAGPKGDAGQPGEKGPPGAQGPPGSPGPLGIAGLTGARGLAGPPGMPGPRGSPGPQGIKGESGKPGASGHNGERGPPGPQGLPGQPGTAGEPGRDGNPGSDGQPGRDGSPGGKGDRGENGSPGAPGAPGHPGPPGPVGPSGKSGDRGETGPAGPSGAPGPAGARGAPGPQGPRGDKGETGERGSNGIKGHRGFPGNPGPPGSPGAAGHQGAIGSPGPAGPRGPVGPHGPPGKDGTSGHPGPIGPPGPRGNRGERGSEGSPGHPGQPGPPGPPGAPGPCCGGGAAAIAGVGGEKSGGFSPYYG

B1: convulxin (Cvx), purified from the venom of Crotalus durissus terrificus (ligand)
chain 1: GLHCPSDWYYYDQHCYRIFNEEMNWEDAEWFCTKQAKGAHLVSIKSAKEADFVAWMVTQNIEESFSHVSIGLRVQNKEKQCSTKWSDGSSVSYDNLLDLYITKCSLLKKETGFRKWFVASCIGKIPFVCKFPPQC
chain 2: GFCCPSHWSSYDRYCYKVFKQEMTWADAEKFCTQQHTGSHLVSFHSTEEVDFVVKMTHQSLKSTFFWIGANNIWNKCNWQWSDGTKPEYKEWHEEFECLISRTFDNQWLSAPCSDTYSFVCKFEA
B2: human TANGO 268 (glycoprotein VI, GPVI) (receptor)
chain: QSGPLPKPSLQALPSSLVPLEKPVTLRCQGPPGVDLYRLEKLSSSRYQDQAVLFIPAMKRSLAGRYRCSYQNGSLWSLPSDQLELVATGVFAKPSLSAQPGPAVSSGGDVTLQCQTRYGFDQFALYKEGDPAPYKNPERWYRASFPIITVTAAHSGTYRCYSFSSRDPYLWSAPSDPLELVVTGTSVTPSRLPTEPPSSVAEFSEATAELTVSFTNKVFTTETSRSITTSPKESDSPAGPARQYYTKGNLVRICLGAVILIILAGFLAEDWHSRRKRLRHRGRAVQRPLPPLPPLPQTRKSHGGQDGGRQDVHSRGLCS
notes: Full-length protein: in lysates of transfected CHO cells and of human platelets (blots), on transduced U937, K562 and HEL cells, and on human platelets; Signal peptide 1-20 is a SIGNALP prediction; also called hGPVI; rhGPVI
B3: mouse TANGO 268 (murine GPVI) (receptor)
chain: QSGPLPKPSLQAQPSSLVPLGQSVILRCQGPPDVDLYRLEKLKPEKYEDQDFLFIPTMERSNAGRYRCSYQNGSHWSLPSDQLELIATGVYAKPSLSAHPSSAVPQGRDVTLKCQSPYSFDEFVLYKEGDTGPYKRPEKWYRANFPIITVTAAHSGTYRCYSFSSSSPYLWSAPSDPLVLVVTGLSATPSQVPTEESFPVTESSRRPSILPTNKISTTEKPMNITASPEGLSPPIGFAHQHYAKGNLVRICLGATIIIILLGLLAEDWHSRKKCLQHRMRALQRPLPPLPLA
notes: Full-length protein on retrovirally transduced FDC-P1, 32D and Ba/F3 cells; Signal peptide 1-21 is a SIGNALP prediction; also called mGPVI; rmGPVI
B4: human neurotactin conjugated to human Fc (Fc fusion, UniProt P78423 25-341, looked up)
chain: QHHGVTKCNITCSKMTSKIPVALLIHYQQNQASCGKRAIILETRQHRLFCADPKEQWVKDAMQHLDRQAAALTRNGGTFEKQIGEVKPRTTPAAGGMDESVVLEPEATGESSSLEPTPSSQEAQRALGTSPELPTGVTGSSGTRLPPTPKAQDGGPVGTELFRVPPVSTAATWQSSAPHQPGPSLWAEAKTSEAPSTQDPSTQASTASSPAPEENAPSEGQRVWGQGQSPRPENSLEREEMGPVPAHTDAFQDWGPGSMAHVSVVPVSSEGTPSREPVASGSWTPKAEEPIHATMDPQRLGVLITPVPDAQAATRRQ
notes: Negative-control Fc fusion; not shown: human Fc

Columns and labels:
[1] = target: B2; assay: flow cytometry, washed human platelets, FITC anti-mouse IgG; negative control
[2] = target: baboon GPVI on baboon platelets (baboon); assay: flow cytometry, washed baboon platelets, FITC anti-mouse IgG; negative control
[3] = target: soluble human GPVI-Fc (extracellular domain of GPVI fused to human IgG1 Fc) (human) (UniProt Q9HCN6); assay: SPR (BIAcore), GPVI-Fc coupled to the chip, bivalent model; negative control
collagen type I = assay: cell-based or functional assay
[4] = target: B2
[5] = target: baboon GPVI on baboon platelets (baboon); assay: flow cytometry, washed baboon platelets; positive control
[6] = target: T2, bovine serum albumin (BSA) (UniProt P02769 25-607); assay: adhesion of 51Cr-labelled GPVI-transduced U937 cells to immobilized BSA
T2 construct: Control surface in the cell adhesion assay
T2 sequence (P02769 25-607 limits assumed): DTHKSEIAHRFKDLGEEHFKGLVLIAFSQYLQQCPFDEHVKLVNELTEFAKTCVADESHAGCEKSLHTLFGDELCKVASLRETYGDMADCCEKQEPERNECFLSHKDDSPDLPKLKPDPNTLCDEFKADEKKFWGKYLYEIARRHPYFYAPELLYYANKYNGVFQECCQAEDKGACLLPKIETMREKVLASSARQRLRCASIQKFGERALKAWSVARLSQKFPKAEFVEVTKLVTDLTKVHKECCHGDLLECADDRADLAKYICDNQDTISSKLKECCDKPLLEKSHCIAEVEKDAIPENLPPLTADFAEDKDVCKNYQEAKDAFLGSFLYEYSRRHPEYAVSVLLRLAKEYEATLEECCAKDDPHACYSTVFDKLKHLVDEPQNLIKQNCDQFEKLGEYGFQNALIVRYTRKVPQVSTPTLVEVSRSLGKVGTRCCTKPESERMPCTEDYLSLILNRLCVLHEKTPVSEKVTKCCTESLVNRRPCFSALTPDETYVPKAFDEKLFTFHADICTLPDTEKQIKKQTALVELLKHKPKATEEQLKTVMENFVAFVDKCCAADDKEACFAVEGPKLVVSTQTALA

[7] = target: B1; assay: ligand blot with 125I-Cvx on lysates of transfected CHO cells and of platelets
[8] = target: B1; assay: flow cytometry, FITC-Cvx
[9] = target: T2, bovine serum albumin (BSA); assay: adhesion of 51Cr-labelled GPVI-transduced FDC-P1 cells to immobilized BSA
[10] = target: T1, mouse collagen (type III) in descending …; assay: immunofluorescence on mouse descending aorta sections, anti-human Fc detection

For “monoclonal antibody 7H14.1 (negative control)”, which Human fluorescence intensity [1] is on record?
Its Human fluorescence intensity is 7.

And the Human platelets % positive [1]?
The Human platelets % positive was 1.4%.

And the Baboon fluorescence intensity [2]?
Its Baboon fluorescence intensity is 9.

What about the Baboon platelets % positive [2] of the same molecule?
The Baboon platelets % positive was 6.8%.

Which results are given for “monoclonal antibody 7120.2 (negative control)”?
Kd [3]: 210 nM; Human fluorescence intensity [1]: 7; Human platelets % positive [1]: 1.6%; Baboon fluorescence intensity [2]: 10; Baboon platelets % positive [2]: 9%

For “recombinant human soluble GPVI:Fc fusion protein (rhusGPVI:Fc) (from UniProt Q9HCN6 21-269)”, which concentration of rhusGPVI:Fc needed for inhibition, against that needed for Cvx (collagen type I) is on record?
The concentration of rhusGPVI:Fc needed for inhibition, against that needed for Cvx was 10 fold.

What does the source list for B1?
IC50 [4]: 4 nM; Baboon fluorescence intensity [5]: 72; Baboon platelets % positive [5]: 95%

Does B2 bind [6]?
Result: no binding

Does B2 bind [7]?
Result: binds

Does B3 bind [8]?
Result: binds

Does B3 bind [9]?
Result: no binding

Does B4 bind [10]?
Result: no binding

From patent US20040001826A1 (published 2004)
